Measured values taken from paper PMC7552008.

Assays:
NS1 RBD H7N1 [1] = target: T1, NS1 RBD H7N1 (Influenza A virus (avian H7N1; allele B), UniProt Q1PST0 1-73); assay: EMSA; details: protein: recombinant; tags: N-His thrombin-cleaved (vector residues remain); chain copies: 2; label: 5'-32P
NS1 RBD H7N9 = NS1 RBD H7N9 (Influenza A virus (H7N9), UniProt S4VCY8 1-73); assay: EMSA; details: protein: recombinant; tags: N-His thrombin-cleaved; chain copies: 2; label: 5'-32P
NS1 RBD H17N10 = NS1 RBD H17N10 (Influenza A virus (H17N10), UniProt H6QM79 1-73); assay: EMSA; details: protein: recombinant; tags: N-His thrombin-cleaved; chain copies: 2; label: 5'-32P
NS1 RBD H7N1 [2] = target: T1, NS1 RBD H7N1; assay: competition EMSA; EC50app vs labelled AWFC01; details: protein: recombinant, tags: N-His thrombin-cleaved (vector residues remain), chain copies: 2
NS1 RBD H7N1 [3] = target: T1, NS1 RBD H7N1; assay: X-ray crystallography; 2.30 A; 2 M ammonium sulfate; details: protein: recombinant; tags: N-His thrombin-cleaved (vector residues remain); chain copies: 2

Question: Does AGCAAAAG (ssRNA) [DM01-mot A] bind (NS1 RBD H7N1 [1])?
Answer: no binding

B1: AWFC01 (dsRNA)
RNA 1: GGUAACUGUUACAGUUACC
RNA 2: GGUAACUGUUACAGUUACC
Question: With B1 as the binder, how does the Kd (NS1 RBD H7N9) read?
Answer: 3.1 ± 0.1 nM

Question: And the Kd (NS1 RBD H17N10)?
Answer: 1.5 ± 0.1 nM

Question: What about the Kd (NS1 RBD H7N1 [1]) of the same binder?
Answer: 0.83 ± 0.03 nM

Question: What about the IC50 (NS1 RBD H7N1 [2]; label: 5'-32P) of the same binder?
Answer: 1.7 ± 0.1 nM

Question: Does UGAUUGAAG (ssRNA) [DM03-mot B] bind (NS1 RBD H7N1 [1])?
Answer: no binding

B2: ZKO* (dsRNA)
RNA 1: AGACAGCAUUAUGCUGUCU
RNA 2: AGACAGCAUUAUGCUGUCU
Question: Does B2 bind (NS1 RBD H7N1 [3])?
Answer: binds

B3: ZKO (dsRNA)
RNA 1: AGACAGCAUUAUGCUGUCUUU
RNA 2: AGACAGCAUUAUGCUGUCUUU
Question: Which IC50 (NS1 RBD H7N1 [2]) does the source give for B3 here?
Answer: 96 ± 3 nM
